Paper PMC10404669, “Vanillyl alcohol oxidase from Diplodia corticola: Residues Ala420 and Glu466 allow for efficient catalysis of syringyl derivatives” (The Journal of Biological Chemistry, 2023)

B1: PsVAO (vanillyl alcohol oxidase) (Penicillium simplicissimum) (protein)
chain: MSKTQEFRPLTLPPKLSLSDFNEFIQDIIRIVGSENVEVISSKDQIVDGSYMKPTHTHDPHHVMDQDYFLASAIVAPRNVADVQSIVGLANKFSFPLWPISIGRNSGYGGAAPRVSGSVVLDMGKNMNRVLEVNVEGAYCVVEPGVTYHDLHNYLEANNLRDKLWLDVPDLGGGSVLGNAVERGVGYTPYGDHWMMHSGMEVVLANGELLRTGMGALPDPKRPETMGLKPEDQPWSKIAHLFPYGFGPYIDGLFSQSNMGIVTKIGIWLMPNPRGYQSYLITLPKDGDLKQAVDIIRPLRLGMALQNVPTIRHILLDAAVLGDKRSYSSRTEPLSDEELDKIAKQLNLGRWNFYGALYGPEPIRRVLWETIKDAFSAIPGVKFYFPEDTPENSVLRVRDKTMQGIPTYDELKWIDWLPNGAHLFFSPIAKVSGEDAMMQYAVTKKRCQEAGLDFIGTFTVGMREMHHIVCIVFNKKDLIQKRKVQWLMRTLIDDCAANGWGEYRTHLAFMDQIMETYNWNNSSFLRFNEVLKNAVDPNGIIAPGKSGVWPSQYSHVTWKL
B2: DcVAO (vanillyl alcohol oxidase) (Diplodia corticola) (protein)
chain: MSLSRPLALPPGVSESTFHQFIERITKTTPDVTIVESKDQFPDGGYHEPPSSHDPFYVQDKDHFIASAFVCPRSVDEVQDIVRAAGDFVIPLWPTSLGRNLGYGGAAPRVRGSVVLNLGKHMNRILEVNVEGAYALVEPGVTFEALHNYLVEHNLRDKLWLDVPDLGGGSVLGNTLERGVGYTPYGDHFMMHSGMEVVLANGELLRTGMGALPAPKSETEGVTKLHEEPGNKCWQLFPYGFGPYNDGLFSQSNLGIVTKLGLGLMPNPGGYQSYLITIPGEEDLHKAVEIIRPLRLNNVIQNVPTLRYVLLDAGMMGHKSDYTSSTSPIDEATTDAIAKKLNLGRWNFYGALYGPPEIRTAMWKLIHAAFSAIPGARFFFPDDVADPRAVLHNRHNVLQGIPSYEELRWVDWVPNGAHVAFSPISRISGADAARQVDLAKRRCRDAGFDYMGTFTVGMREMHHIVEIVFDRTDAGQRKRAEALVRGLVDECAALGWGEYRTHLAFMDQIAGTYGWGGGALGRFNERVKEALDPKGILAPGKSGVWGSRFGELKGKL

How the values were obtained:
[1] = substrate: CCOCc1ccc(O)c(OC)c1; experiment: Michaelis-Menten kinetics, purified enzyme, xylenol orange H2O2 assay (KM); type: biochemical, Penicillium simplicissimum; settings: FAD (covalently bound) catalytic center; pH 7.5; 25.0 °C
[2] = substrate: COCc1ccc(O)c(OC)c1; experiment: as above; type: biochemical, Penicillium simplicissimum; settings: FAD (covalently bound) catalytic center; pH 7.5; 25.0 °C
[3] = substrate: COc1cc(CO)ccc1O; experiment: as above; type: biochemical, Penicillium simplicissimum; settings: FAD (covalently bound) catalytic center; pH 7.5; 25.0 °C
purified protein = substrate: C=CCc1ccc(O)c(OC)c1; experiment: purified protein; type: biochemical, Penicillium simplicissimum; settings: FAD (covalently bound) catalytic center; pH 7.5; 25.0 °C
[4] = substrate: C=CCc1ccc(O)c(OC)c1; experiment: steady-state kinetics, purified enzyme, xylenol orange H2O2 assay (KM, Hill fit); type: biochemical, Diplodia corticola; settings: FAD (covalently bound) catalytic center; pH 7.5; 25.0 °C
[5] = substrate: CCCCOCc1ccc(O)c(OC)c1; experiment: Michaelis-Menten kinetics, purified enzyme, xylenol orange H2O2 assay (KM); type: biochemical, Diplodia corticola; settings: FAD (covalently bound) catalytic center; pH 7.5; 25.0 °C
[6] = substrate: CCOCc1ccc(O)c(OC)c1; experiment: as above; type: biochemical, Diplodia corticola; settings: FAD (covalently bound) catalytic center; Ala420 and Glu466 near the substrate (docking); pH 7.5; 25.0 °C
[7] = substrate: COCc1ccc(O)c(OC)c1; experiment: as above; type: biochemical, Diplodia corticola; settings: FAD (covalently bound) catalytic center; pH 7.5; 25.0 °C
[8] = substrate: COc1cc(CO)ccc1O; experiment: as above; type: biochemical, Diplodia corticola; settings: FAD (covalently bound) catalytic center; pH 7.5; 25.0 °C

Row | Protein | Km [1] [µM] | kcat [1] [s⁻¹] | Km [2] [µM] | kcat [2] [s⁻¹] | Km [3] [µM] | kcat [3] [s⁻¹] | Km (purified protein) [µM] | kcat (purified protein) [s⁻¹] | Km [4] [µM] | kcat [4] [s⁻¹] | Km [5] [µM] | kcat [5] [s⁻¹] | Km [6] [µM] | kcat [6] [s⁻¹] | Km [7] [µM] | kcat [7] [s⁻¹] | Km [8] [µM] | kcat [8] [s⁻¹]
1 | B1 | 86 ± 3 | 2.6 ± 0.02 | 155 ± 5 | 7.9 ± 0.1 | 144 ± 10 | 6.7 ± 0.1 | 67 ± 2 | 18.7 ± 0.5 | – | – | – | – | – | – | – | – | – | –
2 | B2 | – | – | – | – | – | – | – | – | 60 ± 3 | 10.3 ± 0.1 | 258 ± 27 | 2.1 ± 0.1 | 198 ± 19 | 4.7 ± 0.2 | 263 ± 12 | 1.9 ± 0.01 | 297 ± 21 | 4 ± 0.1
